Holding throughout (assay): ITC
(In ITC the heat of successive injections is recorded.)

Assay [1] has as its target Drosophila Su(H) (98-523) WT (Drosophila) (UniProt P28159).
The next assay deals with mouse Rbpj (53-474) E89G (mouse, UniProt P31266 53-474, E89G).
Another assay deals with mouse Rbpj (53-474) WT (mouse, UniProt P31266 53-474).
In assay [2] the target is mouse Rbpj (53-474) K195E (mouse, UniProt P31266 53-474, K195E).
mouse Rbpj (53-474) K195E, sequence (P31266 53-474 K195E): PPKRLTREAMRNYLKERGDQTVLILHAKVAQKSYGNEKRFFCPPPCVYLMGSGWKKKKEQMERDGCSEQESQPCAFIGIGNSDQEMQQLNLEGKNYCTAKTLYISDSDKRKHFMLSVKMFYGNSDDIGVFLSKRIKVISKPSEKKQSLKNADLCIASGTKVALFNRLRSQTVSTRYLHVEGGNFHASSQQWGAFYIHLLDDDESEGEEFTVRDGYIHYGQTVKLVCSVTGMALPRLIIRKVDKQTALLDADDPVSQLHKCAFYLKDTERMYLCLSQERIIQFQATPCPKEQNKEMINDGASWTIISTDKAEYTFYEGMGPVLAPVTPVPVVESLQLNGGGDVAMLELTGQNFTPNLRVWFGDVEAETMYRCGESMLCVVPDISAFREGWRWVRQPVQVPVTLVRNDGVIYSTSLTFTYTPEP

mouse Rbpj (53-474) WT, sequence (P31266 53-474): as the sequence (P31266 53-474 K195E) above, with E143K counted along it
mouse Rbpj (53-474) E89G, sequence (P31266 53-474 E89G): as the sequence (P31266 53-474 K195E) above, with E37G, E143K counted along it

For “Drosophila Notch RAM domain peptide (residues 1763-1790)”, the dissociation constant Kd (commonly the constant that tells how readily two partners part at equilibrium) in assay [1] turned out to be 187 nM.

B1: Notch1 RAM domain peptide (human Notch1 residues 1754-1781) (peptide)
peptide: VLLSRKRRRQHGQLWFPEGFKVSEASKK
B1: the Kd (with mouse Rbpj (53-474) E89G; with mouse Rbpj (53-474) WT; in assay [2]) was roughly 20 nM in each case.

B2: SHARP residues 2776-2833 (domain or fragment)
chain: RASANENSRFHPGSMPVIDDRPADAGSGAGLRVNTSEGVVLLSYSGQKTEGPQRISAK
Take B2: the figures for the dissociation constant (Kd) (with mouse Rbpj (53-474) E89G; in the assay with mouse Rbpj (53-474) WT; in assay [2]) were roughly 5 nM, roughly 5 nM and 21 nM, respectively.

Source of the values: paper doi:10.1101/2021.09.24.461537 (bioRxiv, 2021).
